The test deals with discoidin domain receptor 1 (DDR1) (human (endogenous in primary human umbilical artery SMCs)) (UniProt Q08345). In words: atomic force microscopy.
Sequence of discoidin domain receptor 1 (DDR1) (human (endogenous in primary human umbilical artery SMCs)) (Q08345 19-913): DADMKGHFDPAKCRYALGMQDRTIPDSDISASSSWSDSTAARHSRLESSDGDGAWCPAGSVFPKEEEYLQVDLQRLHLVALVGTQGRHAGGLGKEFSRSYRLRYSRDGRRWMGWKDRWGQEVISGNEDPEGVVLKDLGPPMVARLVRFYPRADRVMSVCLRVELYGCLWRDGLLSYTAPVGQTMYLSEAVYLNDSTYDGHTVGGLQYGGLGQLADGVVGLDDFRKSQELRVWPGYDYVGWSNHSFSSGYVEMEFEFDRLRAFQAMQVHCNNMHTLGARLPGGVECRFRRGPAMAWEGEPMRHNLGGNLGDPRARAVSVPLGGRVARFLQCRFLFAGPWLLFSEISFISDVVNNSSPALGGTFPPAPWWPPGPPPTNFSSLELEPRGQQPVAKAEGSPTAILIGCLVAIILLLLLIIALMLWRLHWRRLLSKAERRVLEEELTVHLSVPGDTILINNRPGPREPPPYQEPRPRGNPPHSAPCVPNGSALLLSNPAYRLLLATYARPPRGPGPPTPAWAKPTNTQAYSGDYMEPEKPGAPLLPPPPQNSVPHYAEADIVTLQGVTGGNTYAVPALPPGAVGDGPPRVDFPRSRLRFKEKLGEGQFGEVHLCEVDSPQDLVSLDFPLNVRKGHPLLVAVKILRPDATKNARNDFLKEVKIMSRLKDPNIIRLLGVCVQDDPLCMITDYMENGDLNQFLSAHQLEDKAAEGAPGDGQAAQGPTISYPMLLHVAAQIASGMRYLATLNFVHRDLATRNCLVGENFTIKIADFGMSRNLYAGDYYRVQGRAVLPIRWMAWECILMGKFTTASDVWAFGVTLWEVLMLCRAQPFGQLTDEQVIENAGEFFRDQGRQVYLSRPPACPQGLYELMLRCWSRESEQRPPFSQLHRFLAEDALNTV

Sequence of Collagen type I (Corning), P02454 152-1207; P02466 86-1125 (ligand) (P02454 152-1207): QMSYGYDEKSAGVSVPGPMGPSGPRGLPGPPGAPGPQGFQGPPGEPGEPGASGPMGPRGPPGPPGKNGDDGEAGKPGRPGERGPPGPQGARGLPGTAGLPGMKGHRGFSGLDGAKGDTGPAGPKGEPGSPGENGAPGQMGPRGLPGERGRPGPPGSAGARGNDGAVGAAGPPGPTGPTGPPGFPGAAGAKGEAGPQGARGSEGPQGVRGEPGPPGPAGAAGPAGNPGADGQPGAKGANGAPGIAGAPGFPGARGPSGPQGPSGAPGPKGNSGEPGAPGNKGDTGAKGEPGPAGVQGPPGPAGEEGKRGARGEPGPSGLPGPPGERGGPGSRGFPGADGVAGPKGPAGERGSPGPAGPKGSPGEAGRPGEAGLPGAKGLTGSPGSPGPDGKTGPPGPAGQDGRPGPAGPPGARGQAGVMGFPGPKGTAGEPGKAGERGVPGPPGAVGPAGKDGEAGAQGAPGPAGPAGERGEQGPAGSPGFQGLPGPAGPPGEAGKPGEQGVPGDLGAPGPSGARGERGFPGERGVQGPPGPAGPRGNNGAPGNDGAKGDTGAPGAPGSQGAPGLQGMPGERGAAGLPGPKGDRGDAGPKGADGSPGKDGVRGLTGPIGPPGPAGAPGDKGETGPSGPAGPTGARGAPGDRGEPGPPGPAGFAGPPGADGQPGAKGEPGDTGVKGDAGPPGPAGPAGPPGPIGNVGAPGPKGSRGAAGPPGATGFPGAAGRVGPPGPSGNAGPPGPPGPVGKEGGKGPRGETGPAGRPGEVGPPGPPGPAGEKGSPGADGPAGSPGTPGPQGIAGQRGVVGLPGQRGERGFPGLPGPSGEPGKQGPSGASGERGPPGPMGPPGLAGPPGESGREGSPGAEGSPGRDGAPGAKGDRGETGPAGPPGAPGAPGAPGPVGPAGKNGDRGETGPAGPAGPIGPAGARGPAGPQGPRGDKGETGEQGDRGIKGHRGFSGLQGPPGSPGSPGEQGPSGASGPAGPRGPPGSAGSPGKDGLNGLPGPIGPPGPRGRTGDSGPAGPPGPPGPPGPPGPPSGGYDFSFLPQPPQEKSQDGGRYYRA
Sequence of Collagen type I (Corning), P02454 152-1207; P02466 86-1125 (ligand) (P02466 86-1125): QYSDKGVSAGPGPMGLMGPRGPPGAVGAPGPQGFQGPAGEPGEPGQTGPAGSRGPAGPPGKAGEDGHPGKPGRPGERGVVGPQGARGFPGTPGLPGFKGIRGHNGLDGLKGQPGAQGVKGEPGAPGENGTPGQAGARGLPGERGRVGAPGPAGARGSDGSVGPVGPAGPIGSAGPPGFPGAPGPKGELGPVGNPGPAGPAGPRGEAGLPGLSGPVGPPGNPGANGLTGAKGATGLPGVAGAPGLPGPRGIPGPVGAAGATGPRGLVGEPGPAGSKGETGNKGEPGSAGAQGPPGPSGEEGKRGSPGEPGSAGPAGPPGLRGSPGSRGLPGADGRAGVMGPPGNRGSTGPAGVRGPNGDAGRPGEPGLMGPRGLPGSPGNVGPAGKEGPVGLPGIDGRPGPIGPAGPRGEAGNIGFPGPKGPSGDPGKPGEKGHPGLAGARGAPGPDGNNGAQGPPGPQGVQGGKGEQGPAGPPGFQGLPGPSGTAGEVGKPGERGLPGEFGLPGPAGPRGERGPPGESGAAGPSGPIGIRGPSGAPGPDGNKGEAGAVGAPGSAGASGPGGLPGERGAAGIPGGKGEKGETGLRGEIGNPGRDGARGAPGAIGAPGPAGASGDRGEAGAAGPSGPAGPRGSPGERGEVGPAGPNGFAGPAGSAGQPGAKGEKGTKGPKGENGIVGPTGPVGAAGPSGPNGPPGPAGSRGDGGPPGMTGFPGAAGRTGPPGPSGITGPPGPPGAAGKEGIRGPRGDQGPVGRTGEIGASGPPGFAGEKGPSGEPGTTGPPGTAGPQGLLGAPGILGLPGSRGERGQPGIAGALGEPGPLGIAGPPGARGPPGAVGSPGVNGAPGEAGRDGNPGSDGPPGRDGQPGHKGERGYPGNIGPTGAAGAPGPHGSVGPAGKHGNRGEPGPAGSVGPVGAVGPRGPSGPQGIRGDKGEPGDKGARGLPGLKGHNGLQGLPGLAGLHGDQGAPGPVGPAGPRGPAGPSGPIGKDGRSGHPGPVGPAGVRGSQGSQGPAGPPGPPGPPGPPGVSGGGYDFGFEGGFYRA

As to “Collagen type I (Corning), P02454 152-1207; P02466 86-1125 (ligand)”, the adhesion probability (cells on soft gels) was 18.3% and the adhesion probability (cells on stiff gels) worked out at 32.4%.
